Data reported in patent US20240075137A1 (COMPUGEN, published 2024).
Where two headings read alike, the source gives them in different places.

Experiments:
human PVRIG on cells [1] = target: T1, human PVRIG on cells (human, UniProt Q6DKI7 1-326); assay: FACS, HEK hPVRIG cells (HEK OE)
T1 construct: whole, on cells; over-expressed on HEK cells or endogenous on Jurkat and CD8 T cells; also called hPVRIG; HEK hPVRIG cells
T1 sequence (looked up): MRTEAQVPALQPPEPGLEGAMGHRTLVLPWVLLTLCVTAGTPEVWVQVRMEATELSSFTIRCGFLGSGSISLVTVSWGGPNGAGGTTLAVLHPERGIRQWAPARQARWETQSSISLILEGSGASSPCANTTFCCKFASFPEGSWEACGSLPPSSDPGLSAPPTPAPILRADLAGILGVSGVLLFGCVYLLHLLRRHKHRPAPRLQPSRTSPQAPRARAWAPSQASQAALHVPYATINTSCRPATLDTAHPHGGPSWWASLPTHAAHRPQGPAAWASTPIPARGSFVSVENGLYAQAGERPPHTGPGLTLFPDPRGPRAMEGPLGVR

[2] = target: T2, cynomolgus PVRIG on cells (cynomolgus, UniProt A0A2K5WVV8 41-322); assay: FACS, expi cPVRIG over expi parental cells, 3.3ug/ml
T2 construct: whole, on cells; also called cPVRIG; expi cPVRIG cells
T2 sequence: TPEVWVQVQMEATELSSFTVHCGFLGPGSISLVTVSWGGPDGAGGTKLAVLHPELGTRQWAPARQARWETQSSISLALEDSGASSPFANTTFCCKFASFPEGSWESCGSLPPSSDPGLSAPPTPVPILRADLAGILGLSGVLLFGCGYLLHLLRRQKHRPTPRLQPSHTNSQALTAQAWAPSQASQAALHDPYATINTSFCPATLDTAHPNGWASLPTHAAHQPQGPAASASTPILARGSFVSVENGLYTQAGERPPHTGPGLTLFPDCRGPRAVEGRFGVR

human PVRIG on cells [3] = target: T1, human PVRIG on cells; assay: FACS, human PBMC, CD56 int. NK cells, 10ug/ml
human PVRIG on cells [4] = target: T1, human PVRIG on cells; assay: FACS, HEK hPVRIG over HEK parental cells, 3.3ug/ml
[5] = target: T3, PVRIG (FACS-based competition assay of FIGS. 7 and 15) (Homo sapiens, UniProt Q6DKI7); assay: FACS-based competition assay of PVRIG blocking; format and competitor not given
T3 construct: made because the format of the assay is only described in U.S. Ser. No. 15/048,967; also called human PVRIG
T3 sequence (receptor, looked up): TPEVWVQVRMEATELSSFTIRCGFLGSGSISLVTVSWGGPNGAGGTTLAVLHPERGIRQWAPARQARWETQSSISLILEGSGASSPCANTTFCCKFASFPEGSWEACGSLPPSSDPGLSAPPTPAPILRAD

human PVRIG on cells [6] = target: T1, human PVRIG on cells; assay: FACS, human PBMC, CD8+ T cells, 10ug/ml
[7] = target: T2, cynomolgus PVRIG on cells; assay: FACS, cyno PBMC, NK cells, 10ug/ml
human PVRIG on cells [8] = target: T1, human PVRIG on cells; assay: FACS, human PBMC, CD56 int. NK cells, 10ug/ml; remark: listed apart in the source
human PVRIG on cells [9] = target: T1, human PVRIG on cells; assay: FACS, Jurkat cells, relative to control, 3.3ug/ml
[10] = target: T2, cynomolgus PVRIG on cells; assay: FACS, cyno PBMC, CD8+ T cells, 10ug/ml
human PVRIG on cells [11] = target: T1, human PVRIG on cells; assay: FACS, human PBMC, CD8+ T cells, 10ug/ml; remark: listed apart in the source
[12] = target: T2, cynomolgus PVRIG on cells; assay: FACS, expi cPVRIG over expi parental cells, 3.3ug/ml; remark: listed apart in the source
[13] = target: T3, PVRIG (FACS-based competition assay of …); assay: FACS-based competition assay of PVRIG blocking; format and competitor not given; remark: listed apart in the source
[14] = target: T2, cynomolgus PVRIG on cells; assay: FACS, cyno PBMC, CD8+ T cells, 10ug/ml; remark: listed apart in the source
[15] = target: T2, cynomolgus PVRIG on cells; assay: FACS, cyno PBMC, NK cells, 10ug/ml; remark: listed apart in the source
human TIGIT on cells = target: T4, human TIGIT on cells (human, UniProt Q495A1 22-141); assay: flow cytometry of fab; MFI on human TIGIT over-expressing Expi293 / MFI on parental Expi293
T4 construct: also called Expi293 human TIGIT over-expressing cells
T4 sequence: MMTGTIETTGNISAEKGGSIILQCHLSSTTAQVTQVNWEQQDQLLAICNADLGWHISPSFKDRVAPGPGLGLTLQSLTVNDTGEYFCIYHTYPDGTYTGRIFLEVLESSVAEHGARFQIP

cyno TIGIT on cells [16] = target: T5, cyno TIGIT on cells (cynomolgus macaque); assay: flow cytometry of fab; MFI on cyno TIGIT over-expressing Expi293 / MFI on parental Expi293
T5 construct: whole, on cells; also called Expi293 cyno TIGIT over-expressing cells

cyno TIGIT on cells [17] = target: T5, cyno TIGIT on cells; assay: FACS titration of AF647-labelled mAb on cyno effector memory CD8+ T cells, Cyno Donor 1; isotype gMFI subtracted
cyno TIGIT on cells [18] = target: T5, cyno TIGIT on cells; assay: FACS titration of AF647-labelled mAb on cyno effector memory CD8+ T cells, Cyno Donor 3; isotype gMFI subtracted
Mouse TIGIT-His = target: T6, Mouse TIGIT-His (mouse, UniProt P86176); assay: SPR (ProteOn), Mouse TIGIT-His
T6 construct: also called mouse TIGIT monomer (prepared in-house)
T6 sequence (soluble monomer with His tag, looked up): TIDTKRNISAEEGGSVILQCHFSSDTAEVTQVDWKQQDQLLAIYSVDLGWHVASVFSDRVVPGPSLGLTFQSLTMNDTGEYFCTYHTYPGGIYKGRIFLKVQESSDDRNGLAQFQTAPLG

Cyno TIGIT-His = target: T7, Cyno TIGIT-His; assay: SPR (ProteOn), Cyno TIGIT-His
T7 construct: also called cyno TIGIT monomer (prepared in-house); C-terminal HIS-tagged cyno TIGIT ECD recombinant protein

[19] = target: T8, human TIGIT ECD with C-terminal polyhistidine tag (human, UniProt Q495A1 22-141); assay: SPR (ProteOn), Human TIGIT-His
T8 construct: in-house or Sino Biological; also called hTIGIT-HIS; human TIGIT-HIS
T8 sequence: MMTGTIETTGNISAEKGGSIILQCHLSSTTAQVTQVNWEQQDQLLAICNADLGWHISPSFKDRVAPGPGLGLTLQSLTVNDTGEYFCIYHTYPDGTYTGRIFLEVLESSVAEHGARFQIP

T7 sequence (ECD with C-terminal His tag, as listed by the source): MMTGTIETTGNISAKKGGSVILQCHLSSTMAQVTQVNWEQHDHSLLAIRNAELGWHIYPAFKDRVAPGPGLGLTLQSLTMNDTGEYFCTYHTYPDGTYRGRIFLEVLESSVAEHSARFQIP

B1: CHA.7.548 (antibody, V domains shown)
VH: EVQLQQSGPELVKPGASVKISCKASGYTFTDYSMNWVKQSHGKSLEWIGDITPNNGSPNYNQKFKDKATLTVDKSSSTVYMELRSLTSEDSAVYYCASLFFDYWGHGTTLTVSS
VL: DIVMTQSPSSLSVSAGEKVTMSCKSSQSLLNSGNQKNYLAWYQQKPGQPPKLLIYGASTRDSGVPDRFTGSGSGTDFTLTITSVQAEDLAVYYCQNDHTYPYTFGGGTKLEIK
- EC50 (human PVRIG on cells [1]): 0.27 nM
- gMFIr Expi cyno OE/par [2]: 4.25
- gMFIr Human CD56 int. NK (human PVRIG on cells [3]): 3.15
- gMFIr HEK OE/par (human PVRIG on cells [4]): 45.3
- IC50 [5]: 19 nM
- gMFIr Human CD8+ T cells (human PVRIG on cells [6]): 3.35
- gMFIr Cyno NK cells [7]: 1.18
- gMFIr Human CD56 int. NK (human PVRIG on cells [8]): 3.15
- gMFIr Jurkat (human PVRIG on cells [9]): 7.37
- gMFIr Cyno CD8+ T cells [10]: 1.09
- gMFIr Human CD8+ T cells (human PVRIG on cells [11]): 3.35
- gMFIr Expi cyno OE/par [12]: 4.25
- IC50 [13]: 19 nM
- gMFIr Cyno CD8+ T cells [14]: 1.09
- gMFIr Cyno NK cells [15]: 1.18

B2: CHA.7.549 (antibody, V domains shown)
VH: QVQLQQPGTELVKPGASVKLSCKASGFTFTTHWMHWVRQRPGQGLEWIGNIYPSNGGSNYNEKFKTKATLTVDRSSSTAYMHLSSLTSEDSAVYYCARRVNWDGYYFDYWGQGTTLTVSS
VL: DIVMTQSQKFMSTSVGDRVSVTCKASQNVGTNVAWYQQKPGQSPKLLIYSASYRYSGVPDRFTGSGSGTDFTLTISNVQSEDLADYFCQQYNSYPLTFGGGTKLEIK
- EC50 (human PVRIG on cells [1]): 2.6 nM
- gMFIr Expi cyno OE/par [2]: 1
- gMFIr Human CD56 int. NK (human PVRIG on cells [3]): 3.05
- gMFIr HEK OE/par (human PVRIG on cells [4]): 29.7
- IC50 [5]: 36.1 nM
- gMFIr Human CD8+ T cells (human PVRIG on cells [6]): 1.42
- gMFIr Human CD56 int. NK (human PVRIG on cells [8]): 3.05
- gMFIr Jurkat (human PVRIG on cells [9]): 2.23
- gMFIr Human CD8+ T cells (human PVRIG on cells [11]): 1.42
- gMFIr Expi cyno OE/par [12]: 1
- IC50 [13]: 36.1 nM

B3: CHA.7.550 (antibody, V domains shown)
VH: QVQLQESGTELVKPGASVKLSCKASGYTFTSYWIHWVKQRPGQGLEWIGNINPSNGGTNYNEKFKSKAALTVDKSSSTAYMQLSSLTSEDSAVYYCARRGLPYFFDYWGQGTTLTVSS
VL: DIVMTQSQKFMSTSVGDRVSVTCKGSQNVGYNVAWYQQKPGQSPKALVYSASDRHSGVPDRFAGSGSGTDFTLTISNVQSEDLAEYFCQQYNSYPLTFGAGTKLELK
- EC50 (human PVRIG on cells [1]): 1.34 nM
- gMFIr Expi cyno OE/par [2]: 0.9
- gMFIr Human CD56 int. NK (human PVRIG on cells [3]): 1.6
- gMFIr HEK OE/par (human PVRIG on cells [4]): 27.7
- IC50 [5]: 58.3 nM
- gMFIr Human CD8+ T cells (human PVRIG on cells [6]): 1.29
- gMFIr Human CD56 int. NK (human PVRIG on cells [8]): 1.6
- gMFIr Jurkat (human PVRIG on cells [9]): 2.1
- gMFIr Human CD8+ T cells (human PVRIG on cells [11]): 1.29
- gMFIr Expi cyno OE/par [12]: 0.9
- IC50 [13]: 58.3 nM

B4: CPA.9.103 (fab) (Fab, V domains shown)
VH: EVQLVETGGGLIQPGGSLRLSCAASGFTVSSNYMSWVRQAPGKGLEWVSVIYSGGSTYYADSVKGRFTISRDNSKNTLYLQMNSLRAEDTAVYYCARGARPNGQYPYWGQGTLVTVSS
VL: DIQLTQSPSFLSASVGDRVTITCRASHGIKSLFSWYQQKPGKAPKLLIYAASTLQTGVPSRFSGSASGTEFTLTISSLQPEDFATYYCLQLDSFPTWTFGQGTKVEIK
notes: variant of CPA.9.059 screened as fab
- MFIr (OE/Par) hTIGIT (human TIGIT on cells): 95
- MFIr (OE/Par) cTIGIT (cyno TIGIT on cells [16]): 30

B5: CPA.9.103 (antibody, human IgG4 S228P, kappa, V domains shown)
VH: EVQLVETGGGLIQPGGSLRLSCAASGFTVSSNYMSWVRQAPGKGLEWVSVIYSGGSTYYADSVKGRFTISRDNSKNTLYLQMNSLRAEDTAVYYCARGARPNGQYPYWGQGTLVTVSS
VL: DIQLTQSPSFLSASVGDRVTITCRASHGIKSLFSWYQQKPGKAPKLLIYAASTLQTGVPSRFSGSASGTEFTLTISSLQPEDFATYYCLQLDSFPTWTFGQGTKVEIKR
modifications: AF647 dye on the antibody in the FACS assay of FIG. 73
notes: fab form is m92; also called CPA.9.103.H4(S241P)
- Kd (cyno TIGIT on cells [17]): 31 nM
- Kd (cyno TIGIT on cells [18]): 25 nM
- Kd (Mouse TIGIT-His): 25 nM
- Kd (Cyno TIGIT-His): 0.337 nM
- Kd [19]: 0.0064 nM

B6: CPA.9.101 (fab) (Fab, V domains shown)
VH: EVQLVETGGGLIQPGGSLRLSCAASGFTVSSNYMSWVRQAPGKGLEWVSVIYSGGSTYYADSVKGRFTISRDNSKNTLYLQMNSLRAEDTAVYYCARGAPLFGQYPYWGQGTLVTVSS
VL: DIQMTQSPSSLSASVGDRVTITCRASHAIASLFSWYQQKPGKAPKLLIYAASTLQTGVPSRFSGSASGTEFTLTISSLQPEDFATYYCLQLDSFPTWTFGQGTKVEIK
notes: as for B4
- MFIr (OE/Par) hTIGIT (human TIGIT on cells): 130
- MFIr (OE/Par) cTIGIT (cyno TIGIT on cells [16]): 22

B7: CHA.9.547.1 (antibody, human IgG4 S228P, kappa, V domains shown)
VH: EVQLVESGGGLVQPGGSLRLSCAASGFTFSSYIMSWVRQAPGKGLEWVSTISGGGTNTYYADSVKGRFTISRDNSKNTLYLQMNSLRAEDTAVYYCAKWLLSYYAMDYWGQGTLVTVSS
VL: DIQMTQSPSSLSASVGDRVTITCRASQNINVWLTWYQQKPGKAPKLLIYKASNLHTGVPSRFSGSGSGTDFTLTISSLQPEDFATYYCQQGQSYPYTFGQGTKLEIKR
modifications: AF647 dye on the antibody in the FACS assay of FIG. 73
notes: also called CHA.9.547.1.H4(S241P)
- Kd (cyno TIGIT on cells [17]): 25 nM
- Kd (cyno TIGIT on cells [18]): 19 nM
- binding result (Mouse TIGIT-His): no binding (tested: not printed)
- Kd (Cyno TIGIT-His): 1.13 nM
